Results from the supplement of paper PMC9170038.

How the values were obtained:
MS2 coat protein [1] = test: apparent KD of MS2 coat protein, switch ON state; designed switch direction (-1 OFF switch, 1 ON switch): -1; higher = weaker reporter binding; settings: FMN input: 0 or 200 uM; Eterna round: R93 (includes R88 designs)
In short: (§1)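 On-chip transcription from Illumina sequencing clusters produced the designed RNA switches. These were titrated with SNAP-549-labelled MS2 coat protein (twofold steps, 0.7 or 1.5 nM to 3 µM) in 100 mM Tris-HCl pH 7.5, 80 mM KCl, 4 mM MgCl2, with or without constant ligand. The apparent KD given is the per-design median of normalised cluster binding-curve fits.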

MS2 coat protein [2] = test: apparent KD of MS2 coat protein, switch OFF state (with FMN for OFF switches, without FMN for ON switches); designed switch direction (-1 OFF switch, 1 ON switch): -1; higher = weaker reporter binding; settings: FMN input: 0 or 200 uM; Eterna round: R93 (includes R88 designs)
In short: as §1

Row | Sequence | apparent KD of MS2 coat protein (MS2 coat protein [1]) [nM] | apparent KD of MS2 coat protein (MS2 coat protein [2]) [nM]
1 | AAAAAUGGAGGAUAUACAUGAGGAUCACCCAUGUGAAACAAAACAAAAAACAAAAAAAGUAGAAGGCCAAAAAA [Gilly Gone Silly 3 - Jieux - Exclusion 3] | 31.2 | 40.1
2 | AAAAAUGGAGGAUAUACAUGAGGAUCACCCAUGUGUAACUAUACUAAGCACAAAAAAAGUAGAAGGCCAAAAAA [Gilly Gone Silly 9 - Jieux - Exclusion 3] | 53.5 | 57.4
3 | AAAAAUGGAGGAUAUACAUGAGGAUCACCCAUGUGUGGCCAUACUAUGUGGUCGUCAGGUAGAAGGCCAAAAAA [Gilly Gone Silly 23 - Jieux - Exclusion 3] | 24.9 | 178
4 | AAAAAUUGAGGAUAUACGAACAUGUCGAAAGACGUGAAGGGACAUGAGGAUCACCCAUGUAGAAGGCGAAAGAA [Mat - Exclusion 2 - JL mod - D67] | 33.6 | 18.2
5 | AAAACAAAAGGAUAUAAAAACAAAAGUCAGGAUAUAGGAAACUAGAAGGGACAUGAGGAUCACCCAUGUAAAAC [Meechl Ex4 R2 m3] | 55.9 | 44.5
6 | AAAACGCUAGGAUAUACAAAAAAAAAGGGAAAAAAAAAGGGACAUGAGGAUCACCCAUGUAGAAGGAGCAAAAA [Diamond 87] | 68.5 | 108
7 | AAAACGGCAGGAUAUACAGAUGAGAACUCGACCGAAAAAAAACAUGAGGAUCACCCAUGUAGAAGGGCCAAAAA [Ex2 Malc#6] | 30.1 | 61.9
8 | AAAACGGCAGGAUAUACAGAUGAGAUCUCGACCGAAAAAAAACAUGAGGAUCACCCAUGUAGAAGGGCCAAAAA [Ex2 Malc#5] | 30.1 | 60.9
9 | AAAACGGCAGGAUAUACAGUUGAGAACUAGACCGAAAAAAAACAUGAGGAUCACCCAUGUAGAAGGGCCAAAAA [Ex2 Malc#8] | 28.4 | 32.5
10 | AAAACGGUAGGAUAUACAAUUGGGAACUAGACCGAAAAACCACAUGAGGAUCACCCAUGUAGAAGGGCCAAAAA [Ex2 Malc#12] | 39.2 | 77.6
11 | AAAACGGUAGGAUAUACGAUUUGGAACUAGACCGAGGAACCACAUGAGGAUCACCCAUGUAGAAGGACCAAAAA [EX2 Malc#18] | 11.9 | 10.7
12 | AAAACGUGAGGAUAUGCACCAAAAAAGGUUUUUCGGGUACGACAUGAGGAUCACCCAUGUAGAAGGCACGAAAA [Frodo Flailing 14 - Jieux - Exclusion 2] | 20.3 | 14.1
13 | AAAACUGGAGGAUAUACAUGAGGAUCACCCAUGUGUGGAUGAGCUGUGUCGGCAUCACGUAGAAGGCCACAAAA [Gilly Gone Silly 38 - Jieux - Exclusion 3] | 34.4 | 53.3
14 | AAAAGGAUAGGAUAUACAUGAGGAUCACCCAUGUGAAUAAAUAAAAGAAAUAAAGAAAGUAGAAGGGUCAAGAA | 25.8 | 22
15 | AAAAGGUGAGGAUAUAGGAAAAUAAAAGAAAAUAAAAGAAACUAGAAGGCACAUGAGGAUCACCCAUGUAAUAA [LROPPY Exclusion 4 - v03_deltaG=3.54 break up the As mixed] | 28.7 | 23.6
16 | AAAAUACAUGAGGAUCACCCAUGUGAGGAUAUGAGAAAGCAAAUAAAAUAAAGCAAACUCAGAAGGCACAAAAA [EX 1 May 25] | 39.5 | 50.2
17 | AAACAACAUGAGGAUCACCCAUGUUAGGAUAUGAACGAAAUAAAAUAAAAAUAAAAGUUCAGAAGGGACAAAAA [Mat - Exclusion 1 - Eli mod - D21] | 23.4 | 25.6
18 | AAACGUUGAGGAUAUACGAAAAAGGGUAGGUCAAAAAAAACACAUGAGGAUCACCCAUGUAGAAGGCAACGAAA [Similarities v.1 (13nt loop FMN+)] | 71.4 | 45.1
19 | AAAGAGUCAGGAUAUUCGUAUAGAGUAGCGCGACUCUAUACGAAGAAGGGACAUGAGGAUCACCCAUGUAAAAA [Ecls4-I] | 50.6 | 51.1
20 | AAAGGACGAGGAUAUACAUGAGGAUCACCCAUGUAAAAAACAUAAAAAAAGAACUUAUGUAGAAGGCGUCCAAA [69%, Moding Meechl, 3] | 52.7 | 399
21 | AAAGGACGAGGAUAUACAUGAGGAUCACCCAUGUAAAAAACAUAGUAAAAGAGCUUGUGUAGAAGGCGUCCAAA [Meechl Ex3 2 R2 v8] | 94.5 | 215
22 | AAAGGACGAGGAUAUACAUGAGGAUCACCCAUGUAAAAAACAUAGUCAAAGGGCUUGUGUAGAAGGCGUCCAAA [Meechl Ex3 2 R2 v11] | 50.2 | 229

Row | Sequence | apparent KD of MS2 coat protein (MS2 coat protein [1]) [nM] | apparent KD of MS2 coat protein (MS2 coat protein [2]) [nM]
23 | AAAGGACGAGGAUAUACAUGAGGAUCACCCAUGUAAAAAGCGUAGCAAAAGAGCUUAUGUAGAAGGCGUCCAAA [Meechl Ex3 2 R2 v4] | 20 | 49.3
24 | AAAGGAGUAGGAUAUACAUGAGGAUCACCCAUGUAAAAAACAUAAUAAAAGAACUUAUGUAGAAGGGCUCCAAA [69%, Moding Meechl, 11] | 35.8 | 77.9
25 | AAAGUGUCAGGAUAUGCGAAGGCAUCUGACAGAUGAGGAUCGCAGAAGGGACAUGAGGAUCACCCAUGUAAAAA | 65.6 | 117
26 | AAAUCGGCAGGAUAUACAUGAAAAUUAAAAAAAAAAAAAAAACAUGAGGAUCACCCAUGUAGAAGGGUCAAAAA [Exclusion 2 - Omei 3] | 77.9 | 75.2
27 | AAAUGACAUGAGGAUCACCCAUGUCAGGAUAUGACUUGAAAAAUAAAAUAAAAACAUGUCAGAAGGGACAUGAA [Design 47: Sub-opt E] | 16.5 | 17.6
28 | AAAUGUCUAGGAUAUACAUGAGGAUCACCCAUGUGUAAAAAUAAAUACACAAAAGAAAGUAGAAGGAGACAAAG [Mat - Exclusion 3 - Mayanna mod - D121] | 21.6 | 59.9
29 | AAAUGUUGAGGAUAUACAUGAGGAUCACCCAUGUGUAAAAAUAAAUACACAAAAGAAAGUAGAAGGCAACAAAA [Ex 3 May 11] | 28.7 | 79.7
30 | AAAUUGUCAGGAUAUCGUAGAAUAGUGAAAAACUAGAGCUACGAGAAGGGACAUGAGGAUCACCCAUGUAAAAC [May 92] | 43.3 | 54.4
31 | AAAUUGUCAGGAUAUGUAGCAAAAGGUGAUCAAAAAAAGCUACAGAAGGGACAUGAGGAUCACCCAUGUAAAAA [Ex4: 936] | 242 | 359
32 | AACAAGUGAGGAUAUGAAAAUAAAACAAACAAACAAAUAAAUCAGAAGGCACAUGAGGAUCACCCAUGUAAAAA [JR_Exc004_Sub1203] | 17.1 | 18.5
33 | AACAGGACAGGAUAUACAUGAGGAUCACCCAUGUGAGAAUUCAGUAGAUUGCCACAGAGUAGAAGGGUCCUGGA [Ruby 100] | 58.5 | 102
34 | AACAGUACAGGAUAUACAUGAGGAUCACCCAUGUAAAAAUAAAAGGGAAUCUCAAAAAGUAGAAGGGUACUGGA [Moding Maslow revisited (73) 13] | 72.5 | 36.3
35 | AACAGUACAGGAUAUACAUGAGGAUCACCCAUGUGAAAAGAAAGUGGCGUACCACAAAGUAGAAGGGUACUGGA [Mat - Exclusion 3 - JL mod - D24] | 27.5 | 96.8
36 | AACAGUACAGGAUAUACAUGAGGAUCACCCAUGUGAAAAUUAAGUGGAAAACCACAAUGUAGAAGGGUACUGGA [Mat - Exclusion 3 - Eli mod - D49] | 46.1 | 219
37 | AACAGUACAGGAUAUACAUGAGGAUCACCCAUGUGAAAAUUAAGUGGAGAACCACAAUGUAGAAGGGUACUGGA [Mat - Exclusion 3 - Eli mod - D48] | 133 | 57.3
38 | AACAGUACAGGAUAUACAUGAGGAUCACCCAUGUGAAAAUUAAGUGGAGAACCACAGUGUAGAAGGGUACUGGA [Mat - Exclusion 3 - Eli mod - D52] | 142 | 49.8
39 | AACAGUACAGGAUAUACAUGAGGAUCACCCAUGUGAAAUAAAAGUGGCGUACCACAAAGUAGAAGGGUACUGGA [Mat - Exclusion 3 - JL mod - D22] | 27.3 | 119
40 | AACAGUACAGGAUAUACAUGAGGAUCACCCAUGUGAAGAAUAAGUGGAGUACCACAAAGUAGAAGGGUACUGGA [Ruby 88] | 31.8 | 104
41 | AACAGUACAGGAUAUACAUGAGGAUCACCCAUGUGACAUAAAUAAAACAAAAAUAAAAGUAGAAGGGUACUGGA [Ruby 43] | 28.5 | 60
42 | AACAGUACAGGAUAUACAUGAGGAUCACCCAUGUGAGAAAUAAGUGGCGUACCACAAAGUAGAAGGGUACUGGA [Mat - Exclusion 3 - JL mod - D21] | 32.6 | 150
43 | AACAGUACAGGAUAUACAUGAGGAUCACCCAUGUGAGAAUUAAAAGGCGUACCUAAAUGUAGAAGGGUACUGGA [JL Maslow Revisted mod 19] | 56.3 | 61.8
44 | AACAGUACAGGAUAUACAUGAGGAUCACCCAUGUGAUAGGAAUAAAACAAAAAUAAAAGUAGAAGGGUACUGGA [Ruby 46] | 34 | 145
